Measured values from the supplement of paper PMC9732359.
± gives the uncertainty stated by the source.

assay: protein stability index of a GFP-peptide fusion (yeast GPS) (PSI 1-4); higher = more stable; sorted into four equal gates, so the index is relative within each strain; settings: doa10∆
How it was run: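 Each library plasmid carries Cherry plus GFP with a tiled 17-residue yeast protein peptide fused downstream, and the pooled library was carried in yeast. Mid-log cultures in leucine-free medium were sorted into four equal gates by GFP/Cherry ratio. Reads from Illumina sequencing of PCR-amplified plasmids from each gate were assigned to strains by barcodes. Per peptide, the protein stability index was computed as the summed products of gate read frequency and gate number.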

Sequence	protein stability index
FGVTKARWPAKSVKFVQ [RPL17A]	2.63 ± 0.088
FHSTYLMNGVKPFKSFL [FAS1]	2.65 ± 0.12
FIAVGQILPESQWNDSS [SIR3]	2.27 ± 0.16
FIKFKLIQQVPPGLDAL [CDC53]	2.29 ± 0.067
FIRVIGSELVQKYVGEG [RPT1]	2.59 ± 0.21
FISSGTSLLDSLISVLE [YJL039C/NUP192]	2 ± 0.056
FITFSLDDWISIGYETE [IRR1]	2.56 ± 0.078
FITRLAQGLLHLGKGTM [RPN1]	2.9 ± 0.086
FIVVPDLLKNAPLFKKN [SMD3]	2.07 ± 0.053
FIYKKVLKEKDVPAYNV [SRB8]	2.99 ± 0.086
FKELCYENKDNLTAGII [PRE3]	2.95 ± 0.044
FKGALTIKILPENTAMF [YMR129W/POM152]	2.32 ± 0.083
FKGVIVKIVDKDGIRQV [PRE1]	2.26 ± 0.18
FKHISVKDFTSLGFNEV [RPO21]	3.08 ± 0.21
FKLVSTPSSNSNSSELE [MED1]	1.85 ± 0.058
FKQSNSETFLQFYVKRW [CDC53]	2.93 ± 0.13
FKRNAVFVGTIFAGAFV [QCR9]	1.92 ± 0.064
FKVQELLHSKPSLLLQK [NAS6]	2.23 ± 0.13
FKYIYELILAGAIDEAL [YDL116W/NUP84]	1.6 ± 0.074
FKYVEDRFPLKLREPVA [ITC1]	2.42 ± 0.094
FLDGIYVSHKGFITEDL [RPL9A]	2.38 ± 0.081
FLDYTTDNVSMYPSPTG [PRP8]	2.85 ± 0.056
FLERKCVHMVYEYAEHD [SSN3]	1.71 ± 0.061
FLGYKAGMTTIVRDLDR [RPL3]	2.48 ± 0.12
FLKERLMEASDAFRVHI [RPB2]	1.66 ± 0.073

Sequence	protein stability index
FLKKLRNEQVTIELKNG [SMD1]	2.49 ± 0.051
FLLRRVKADVEKSLLPK [ISW2]	3.19 ± 0.13
FLPFNNSASNNGNLTSN [SWI1]	2.94 ± 0.093
FLPKLNSVRNSLLLAHF [NUT1]	2.15 ± 0.04
FLQHPDEEYPVKVKVSY [PRP8]	3.24 ± 0.083
FLTVSKLWAEIIVKILY [GRR1]	1.55 ± 0.046
FMKSVIRSREAFSYEQA [DIS3]	2.28 ± 0.11
FNAPATGNGTTTTSNTS [YOR098C/NUP1]	2.44 ± 0.034
FNDFSNIKTSEWDLYPQ [REC8]	2.84 ± 0.082
FNGAQLKAVTVEAGMIA [RPT5]	2.73 ± 0.28
FNGYNPEKKEMIQEVIV [FAS2]	3.39 ± 0.086
FNSFRRFKSQFLYVLIP [QCR8]	1.63 ± 0.1
FNVVDVGVDQLSIELEG [YJL039C/NUP192]	3.49 ± 0.076
FNYVQECPAIPIFNYIF [YJL039C/NUP192]	1.9 ± 0.072
FPEENIIDAKTRNEQTT [MCD1]	3.29 ± 0.09
FPPNLEKGENPSCVYNL [UBP6]	2.79 ± 0.1
FQAVIQKSINHPPDFKR [SNF2]	2.8 ± 0.12
FQDTLYKKIPLLGPTLE [QCR10]	2.84 ± 0.13
FRCKETHSYNFMRQNLE [RPC82]	2.52 ± 0.078
FSHPAHQQRMSRTAADI [YCG1]	2.01 ± 0.07
FSHSLTTILSFSSPAAL [NUT1]	1.46 ± 0.031
FSKFERSKSSHKNERRV [SKI6]	3.16 ± 0.082
FSNVELPQCIIPSSYIK [ARP7]	2.38 ± 0.042
FSQEALQYVVERVGKRT [FAS1]	1.07 ± 0.091
FSSNLSYANHLEESDVE [YOR098C/NUP1]	2.45 ± 0.087

same assay, conditions: pdr5∆

Sequence	protein stability index
ETSCDNYHPMNIDETSD [SMC4]	3.16 ± 0.052
